# Measured values taken from publication PMC7588443 (Nature Communications, 2020).
# B1: unnamed (parent)
# chain 1: ECPDRWRAEIDLGLPPGVQVGDLLRNEQTMGSLRQVYLLAVQANSITDHLKRFDAVRVPESCRGVVEAQVAKLEAVRSVIWNTMISLAVSGIEMDENGLKALLDKQAGDSLALMEMEKVATALKMD
# chain 2: MQKVSLRVTPRLVLEVNRHNAICVATNVPEFYNARGDLNIRDLRAHVKARMISSQFCGYVLVSLLDSEDQVDHLNIFPHVFSERMILYKPNNVNLMEMCALLSMIENAKSPSIGLCREVLGRLTLLHSKCNNLDSLFLYNGARTLLSTLVKYHDLEEGAATPGPWNEGLSLFKLHKELKRAPSEARDLMQSLFLTSGKMGCLARSPKDYCADLNKEEDANSGFTFNLFYQDSLLTKHFQCQTVLQTLRRKCLGSDTVSKIIP
# Variants of: B1
# Assay: BLI
# Settings: with partner chain of the complex shown; 10 μg ml−1 His-tagged BBRF2Δ; BSRF1Δ(M63D) at 500, 250, 125, 62.5, 31.3, 15.6 nM
row,Variant,Kd [nM]
1,chain 1 ECPDRWRAEIDLGLPPGVQVGDLLRNEQTDGSLRQVYLLAVQANSITDHLKRFDAVRVPESCRGVVEAQVAKLEAVRSVIWNTMISLAVSGIEMDENGLKALLDKQAGDSLALMEMEKVATALKMD [chain 1 M30D],126

# Same assay, conditions: with partner chain of the complex shown; 10 μg ml−1 His-tagged BBRF2Δ; BSRF1Δ(N59K) at 500, 250, 125, 62.5, 31.3 nM
row,Variant,Kd [nM]
1,chain 1 ECPDRWRAEIDLGLPPGVQVGDLLRKEQTMGSLRQVYLLAVQANSITDHLKRFDAVRVPESCRGVVEAQVAKLEAVRSVIWNTMISLAVSGIEMDENGLKALLDKQAGDSLALMEMEKVATALKMD [chain 1 N26K],59.9

# Same assay, conditions: with partner chain of the complex shown; 10 μg ml−1 His-tagged BBRF2Δ(F209K); BSRF1Δ at 500, 250, 125, 62.5, 31.3, 15.6 nM
row,Variant,Kd [nM]
1,chain 2 MQKVSLRVTPRLVLEVNRHNAICVATNVPEFYNARGDLNIRDLRAHVKARMISSQFCGYVLVSLLDSEDQVDHLNIFPHVFSERMILYKPNNVNLMEMCALLSMIENAKSPSIGLCREVLGRLTLLHSKCNNLDSLFLYNGARTLLSTLVKYHDLEEGAATPGPWNEGLSLFKLHKELKRAPSEARDLMQSLKLTSGKMGCLARSPKDYCADLNKEEDANSGFTFNLFYQDSLLTKHFQCQTVLQTLRRKCLGSDTVSKIIP [chain 2 F193K],53.9
